# Measurements: patent US20210179693A1 (Xencor, published 2021)
# Where a chain is given by its changes, count along the chain named. In names and notes the source's numbering stands.
# B1: anti-VEGF IgG2 N434S (antibody)
# heavy: EVQLVESGGGLVQPGGSLRLSCAASGYTFTNYGMNWVRQAPGKGLEWVGWINTYTGEPTYAADFKRRFTFSLDTSKSTAYLQMNSLRAEDTAVYYCAKYPHYYGSSHWYFDVWGQGTLVTVSSASTKGPSVFPLAPCSRSTSESTAALGCLVKDYFPEPVTVSWNSGALTSGVHTFPAVLQSSGLYSLSSVVTVPSSNFGTQTYTCNVDHKPSNTKVDKTVERKCCVECPPCPAPPVAGPSVFLFPPKPKDTLMISRTPEVTCVVVDVSHEDPEVQFNWYVDGVEVHNAKTKPREEQFNSTFRVVSVLTVVHQDWLNGKEYKCKVSNKGLPAPIEKTISKTKGQPREPQVYTLPPSREEMTKNQVSLTCLVKGFYPSDIAVEWESNGQPENNYKTTPPMLDSDGSFFLYSKLTVDKSRWQQGNVFSCSVMHEALHSHYTQKSLSLSPGK
# light: not shown
# B2: anti-VEGF IgG2 N434E (antibody)
# heavy: B1 heavy with S436E
# light: not shown
# B3: anti-VEGF IgG2 N434T (antibody)
# heavy: B1 heavy with S436T
# light: not shown
# B4: anti-VEGF IgG2 M428L/N434S (antibody)
# heavy: B1 heavy with M430L
# light: not shown
# B5: anti-VEGF IgG2 N434V (antibody)
# heavy: B1 heavy with S436V
# light: not shown
# notes: also called 434V in IgG2
# B6: anti-VEGF IgG2 N434D (antibody)
# heavy: B1 heavy with S436D
# light: not shown
# B7: anti-VEGF IgG2 N434P (antibody)
# heavy: B1 heavy with S436P
# light: not shown
# B8: anti-VEGF IgG2 N434K (antibody)
# heavy: B1 heavy with S436K
# light: not shown
# B9: anti-VEGF IgG2 N434R (antibody)
# heavy: B1 heavy with S436R
# light: not shown
# Target: T1, human FcRn (His-tagged alpha chain with beta 2 microglobulin) (human, UniProt P55899 24-297; P61769 21-119, limits assumed)
# T1 construct: also called hFcRn; not shown: His tag
# Experiment: Biacore, human FcRn on chip, pH 6.0
# From the text: A cycle with antibody and buffer only provided baseline response, which was subtracted from each sample sensorgram.
fold FcRn binding,fold FcRn binding relative to WT IgG2,binding result,Binder
4.9 fold,,,B1
,< 0.5 fold,,B2
,,binds,B3
14.8 fold,,,B4
,< 0.5 fold,,B5
,< 0.5 fold,,B6
,< 0.5 fold,,B7
,< 0.5 fold,,B8
,< 0.5 fold,,B9
